Results taken from the DeepSol protein solubility set.

Experiment: soluble on expression in E. coli; label from the status in PepcDB or PDB records

Sequence	soluble on expression in E. coli
VTPSEGNAPLPELHNTVVVAAFEGWNDAGDAAGDAVAHLAASWQALPIVEIDDEAYYDYQVNRPVIRQVDGVTRELQWPAMRISHCRPPGSDRDVVLMCGVEPNMRWRTFCDELLAVIDKLNVDTVVILGALLADTPHTRPVPVSGAAYSAASARQFGLQETRYEGPTGIAGVFQSACVGAGIPAVTFWAAVPHYVSHPPNPKATIALLRRVEDVLDVEVPLADLPAQAEAWEREITETIAEDHELAEYVQTLEQHGDAAVDMNEALGNIDGDALAAEFERYLRRRRPGFGR	soluble
MKTSKFTEAQIAFALKQAELGTKVEEVCRKLGISEATFYNWKKKYGGVGPSELRRMRQLEEENTKLKRLVADLSLDKAMLQDVLSKKLAAALEHHHHHH	not soluble
MTTAHFYCQYCTASLLGKKYVLKDDSPYCVTCYDRVFSNYCEECKKPIESDSKDLCYKDRHWHEGCFKCTKCNHSLVEKPFAAKDERLLCTECYSNECSSKCFHCKRTIMPGSRKMEFKGNYWHETCFVCENCRQPIGTKPLISKESGNYCVPCFEKEFAHYCNFCKKVITSGGITFCDQLWHKECFLCSDCRKDLCEEQFMSRDDYPFCMDCYNHLYANKCVACSKPISGLTGAKFICFQDSQWHSECFNCGKCSVSLVGKGFLTQNKEIFCQKCGSGMDTDI	soluble
MLQSINQLNPDIVVITGDLTENGFSAEYDGVKMFIDRIECKNRVLVPGNHDSKNAGYLHFEDLFENRFQTRNLGNMTIVGADSSQPDIDDGHLGRENYGWIKEAFSGENFKVFALHHHLVPIPLAGRENTVLVDAGDVLDLLNKCRVNLVLCGHCHIPHVWNLNNMLVVNAGTFCSSKTRGKTTQCFNLIQAENSEKNGNGESEKIEDGGWKVRVSRVFPQGNIEFITETVMLEHHHHHH	not soluble
MDERRKRKAKDQLSPYSNPDEENDRHNTAIEPSPSASRKRAKARVGDLGTIADSGPLKGVLSSVNILKPRIRSDRISGLNRCFVNAVQKVVEKESNKSLLYLFRQYEKYYEELNEASD	not soluble
MVAKGRIIRVTGPLVVADGMKGAKMYEVVRVGELGLIGEIIRLEGDKAVIQVYEETAGVRPGEPVVGTGASLSVELGPGLLTSIYDGIQRPLEVIREKTGDFIARGVTAPALPRDKKWHFIPKAKVGDKVVGGDIIGEVPETSIIVHKIMVPPGIEGEIVEIAEEGDYTIEEVIAKVKTPSGEIKELKMYQRWPVRVKRPYKEKLPPEVPLITGQRVIDTFFPQAKGGTAAIPGPFGSGKTVTQHQLAKWSDAQVVIYIGCGERGNEMTDVLEEFPKLKDPKTGKPLMERTVLIANTSNMPVAAREASIYTGITIAEYFRDMGYDVALMADSTSRWAEALREISGRLEEMPGEEGYPAYLASKLAEFYERAGRVVTLGSDYRVGSVSVIGAVSPPGGDFSEPVVQNTLRVVKVFWALDADLARRRHFPAINWLTSYSLYVDAVKDWWHKNIDPEWKAMRDKAMALLQKESELQEIVRIVGPDALPERERAILLVARMLREDYLQQDAFDEVDTYCPPEKQVTMMRVLLNFYDKTMEAINRGVPLEEIAKLPVREEIGRMKFERDVSKIRSLIDKTNEQFEELFKKYGA	soluble
MLGKLPQQANDYLNSFNWERQVSHAKEKLTALTKKYRITENDIQIALDDAKINFNEKLSQLQTYMI	not soluble
GSMTEADVNPKAYPLADAHLTKKLLDLVQQSCNYKQLRKGANEATKTLNRGISEFIVMAADAEPLEIILHLPLLCEDKNVPYVFVRSKQALGRACGVSRPVIACSVTIKEGSQLKQQIQSIQQSIERLLV	soluble
MLTACNGSRKGDANLSDNPLLQSSALFMEAPEFDKIKTEHFLPAFEAGMEQQLAEIDSIVNNSEAPTFENTLVAMERSGQTLKRVSNVFFGLTGANTNDELQKIEEKVSPLLAAHSDAIYLNDKLFQRVKAVYESDQSAIEPEGQKLIQEYYDAFVRAGANLSAEDKAKLMELNKEEASLTTEFGNKLIAATNAAAVIVGSKDSLDGLSETEIAKAASDAKAAGHEGKYLLNITNTTQQDYLSVLNDRTIRQRVLEASIHRTDKGDANDTQSIVLRLARLRAQKARLLGFPNYAAWKLQNQMANNPETVLAFVKSIATPYAPQAQKDAAELQAYARSKGFEGDLTAADWNYYADKLRKEKFGLDENEVKQYFVTDSVLKNGVFYAANKLYGLTFKERTDLPVYAEDVRVFDVIDQDGKQLALFYTDLYRRPTKSGGAWMSNWVDQSYLLNQKPVIYNVCNYAKGVDGQPSLINYDEVTTLFHEFGHALHGMFAAQQYPLLSGTNVARDFVEMPSQLNEHWAMDPEVFANYAKHWKTQEPMPAELVKKIQDASDFNQAYSMGENLAAVSLDQAWHTLTVEEAEAITDVAKFEEEALRKVGLYNPQIPPRYRSSYFRHIWSNGYASGYYAYLWTEVLDHNVYQWMVQNGGMTPQNGQRLRDMILSRGNTQDFNVIFTAFTGLQKPDIRDLLRARGLM	soluble
MSLKSESKGGSNALVVSTFGLSEDIVKKDIIAPFEKENEAKVTLEVGNSADRFTKLKNNPNAGIDVIELAQANAAQGGKDGLFEKITEKEVPNLSQLTPGAKEVFESGAGVPIAVNSIGIVYNKEKLGKEIKNWDDLWSADLKGKISVPDVATTAGPLMLYVASEHAGQDITKDNGKAAFEAMKELKPNVVKTYSKSSDLANMFQSGEIEAAVVADFAVDIIQGAAENVTYIVPESGTYANYNTVNIPKKAQNKETAFKFVNARISEESQKAKAISLNEGPTNQQVTLSEKEAKNKTYGAIAERAKTVDFNFINSQLADWIDQWNRTMNQEGHHHHHH	soluble
RSPICHLFSAINSSPFKIAPEKEQDLKTIVDDKKIIISVVSEPGFNIRVRKNESNNSHEIVLTVASLEYIWAFSNFFWVFTQEYSKSQKNNDEHFDLTGKNRLKKSDELLKWARKNLQTTGCESWPKKCPKPEAYLQGSEDSQVASEIFLCAIAWILHHEISHVVLQHPLVTTAFSTQEEREADSHATKWILGNLYESAPELKKRALGIATAVLCIQSLEVENYFCLQNTHPAAYERIYSNISCYPVGNEELIEALCTVMLQYLFHGKNINVNLDGESFSSILGDLLCDISRLTSN	not soluble
GAVDLNDDVLDMGTGLRMQLYQCGDPRGRPVLYLHGMLDGMAPLEYLKHDFARRGLRVLAPVRPGYGLSEPVAGVEPGLRAMASHAVELIDRFALDRVAILGHMAGAVTGYVLRAGGDPRLAGMVAVAASGPLLRRAQLSGMARRQRMMAMTARWTPALLPFFVRAGIALIDSEEVGRFMDALYPPGSHERQVVDRLELAALMHAGYRFAAQSGTAGFEADALTMVSPWQRLSDGGTCPVVHLHGALDPVVPAAETARFAASISGASFRRFEDVGQFLIYERPDAVLDAIEAMLPPR	not soluble
MIVSMIAALANNRVIGLDNKMPWHLPAELQLFKRATLGKPIVMGRNTFESIGRPLPGRLNIVLSRQTDYQPEGVTVVATLEDAVVAAGDVEELMIIGGATIYNQCLAAADRLYLTHIELTTEGDTWFPDYEQYNWQEIEHESYAADDKNPHNYRFSLLERVK	soluble
MGSSHHHHHHSSGLVPRGSHMLEDPMEQPINVLNDFHPLNEAGKILIKHPSLAERKDEDGIHWIKSQWDGKWYPEKFSDYLRLHKIVKIPNNSDKPELFQTYKDKNNKRSRYMGLPNLKRANIKTQWTREMVEEWKKCRDDIVYFAETYCAITHIDYGVIKVQLRDYQRDMLKIMSSKRMTVCNLSRQLGKTTVVAIFLAHFVCFNKDKAVGILAHKGSMSAEVLDRTKQAIELLPDFLQPGIVEWNKGSIELDNGSSIGAYASSPDAVRGNSFAMIYIEDCAFIPNFHDSWLAIQPVISSGRRSKIIITTTPNGLNHFYDIWTAAVEGKSGFEPYTAIWNSVKERLYNDEDIFDDGWQWSIQTINGSSLAQFRQEHTAAFEGTSGTLISGMKLAVMDFIEVTPDDHGFHQFKKPEPDRKYIATLDCSEGRGQDYHALHIIDVTDDVWEQVGVLHSNTISHLILPDIVMRYLVEYNECPVYIELNSTGVSVAKSLYMDLEYEGVICDSYTDLGMKQTKRTKAVGCSTLKDLIEKDKLIIHHRATIQEFRTFSEKGVSWAAEEGYHDDLVMSLVIFGWLSTQSKFIDYADKDD	soluble
MSLVTSMTFYETRFPEDISYGSTGGPEFTTSIIETNNGYEYRKINISYPRNKYNIMYSVKSEEELLKLINFFYIHKGKAIGFRFKDWADYKAIQQKIGIGDNHQTTFQLVKTYKVDQFSYIRTITKPVINTVKIYYNDSIKNNGFSVNLSNGQIKFDIAPKDGIEIFADYEFDVPVRFDSDYLPYSIDNYKQYNCNNITLIEVKTEGHHHHHH	not soluble
